Source: PMC10794523

Target: T1, Sif (Lmo0946-His6) (Listeria monocytogenes EGD-e) (UniProt Q8Y8F8)
T1 sequence: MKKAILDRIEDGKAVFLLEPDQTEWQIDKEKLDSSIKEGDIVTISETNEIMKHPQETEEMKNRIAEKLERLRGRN
Experiment: EMSA
Conditions: EMSA 37 C 30 min, 4.2% native PAGE, ethidium bromide stain; binding buffer not stated (protein dialyzed in 20 mM Tris-HCl pH 8.0, 150 mM NaCl, 1% glycerol)

Sequence | binding
GCGGTATGTTTCCACTGTCGCTGTAATACCTGATTGTTCTTTAGAAAGGTCGCGTAGTCGCTTTGGATCAGATACTACATCTGGATCACTTAGTAGTTCATTTAGTTCATCATAACGGTCTTCCACCGCCTGTAATCGATCATACATTGTATTCCAACACCTCTTTAACTTATTTTATTGGTGGATTGGCATGACATTTGCGACACACAGGGTAATAGTGGTCATTTCCGCCAATCATAATTTGTTCACCTGTATAAACTGGTTTTCCTTTGTCATCAACGCGCAG (double strand) [prfA promoter region] | no binding
AGCGAATTAGCTCAAGTCCTCCATACCCCGTCGCGCCAATGATTGAAACTTTCATCCTAACCCCTCCCCGTTAATTATTAAATGATACTTTTCATTATAATGATGTATATTTATAATGTCAAATGGTTTTTTATTAATATTTAAAACTATTTTATGCATTTTAAGTTATTTATTATGTATATAATATACAAAAAACCGTTTATCCTTTTCTAGGATAAACGGTTAATCTTAAAATAAATCAGCGAACTCATCTTTCACTTGCGCAGTTTCCGCTAC (double strand) [argC promoter region] | no binding
